{"source": "patent US9328334B2", "about": "“Luciferase derived from lucidina accensa” (OLYMPUS CORPORATION, priority 2011, dated 2016)", "key": {"HeLa cells": {"system": "HeLa cells", "assay": "Luminescence intensity of luciferase expressed in HeLa cells, comparison with L. biplagiata luciferase (Example 5)", "assay_type": "cell-based", "conditions": "37° C.", "excerpt": "The luminescence intensity from the light emitting reaction using the wild type luciferase derived from L. accensa (SEQ ID NO: 1) was compared to the luminescence intensity from the light emitting reaction using the luciferase derived from L. biplagiata having the literature sequence (SEQ ID NO: 30) or the luciferase derived from L. biplagiata having the cloned sequence (SEQ ID NO: 31). Further, based on the difference between the literature sequence and the cloned sequence, the amino acid residue at position 249 of the amino acid sequence of the wild type luciferase, i.e., methionine, was changed to lysine to prepare the mutant luciferase (M249K), which was then used for the intensity measurement.\nWith regard to the four types of the luciferase, a nucleic acid containing a gene optimized for mammalian cell expression was given with a Kozak sequence, and then inserted between SgfI and PmeI sites within the multicloning site of pF9A CMV hRLuc neo Flexi vector (manufactured by Promega). Further, since the pF9A vector contains the luciferase gene derived from Renilla reniformis as an internal control in the vector sequence, it is possible to obtain the luminescence intensity from the luminescent gene inserted to the multicloning site as a ratio compared to the luminescence intensity emitted by the Renilla luciferase.\nFour types of luciferase plasmids obtained in such a manner described above were each subjected to gene transfection to HeLa cells inoculated in a 48-well plate by a lipofection method, and 24 hours later, the cells were washed with PBS. To each well of a 48-well plate, 500 μL of 2 mM D-luciferin/CO2 Independent Medium (manufactured by Invitrogen) was added and the luminescence intensity was measured for 90 min by using a Luminescensor (manufactured by ATTO Corporation) under the condition including 37° C. and 1 sec per each well. The luminescence intensity which is obtained at the time point of 90 min after starting the measurement was taken as the luminescence intensity of each luciferase. […] Subsequently, 500 μL of 10 μM coelenterazine/CO2 Independent Medium was added to each well and the luminescence intensity was measured for 30 min by using a Luminescensor under the condition including 37° C. and 1 sec per each well. The luminescence intensity obtained at five minutes after the addition of coelenterazine was taken as luminescence intensity of the Renilla luciferase, which is an internal control. Each of the luminescence intensities from the luciferases was divided by the luminescence intensity of the Renilla luciferase, yielding the luminescence intensity of each luciferase. The measurements were carried out multiple times for each luciferase, and the luminescence intensity was obtained as a mean value."}, "[1]": {"assay": "Measurement of Km for D-luciferin", "assay_type": "biochemical", "conditions": "0.1 M Tris-HCl pH 8.0, ATP and MgSO4 present", "experimental": "Eight types of D-luciferin solution of various concentrations were prepared by adding D-luciferin to 0.1 M Tris-HCl (pH 8.0). These solutions contain D-luciferin at final concentrations of 0.625, 1.25, 2.5, 5, 10, 20, 40, and 80 μM. These D-luciferin solutions were aliquoted into 96-well microplate at a volume of 50 μL each. A solution of 0.1 M Tris-HCl (pH 8.0) containing each of the purified luciferase, 4 mM of ATP, and 8 mM of MgSO4 was connected to the standard pump of the luminometer, and the measurements was carried out at the same time as addition of 50 μL of the solution to the well. A Luminescensor (manufactured by ATTO Corporation) was used for the measurements. Measurements were repeated 3 times for each luciferin concentration.\n(§1) The peak intensity of the obtained photon count value was plotted with respect to luciferin concentration S, defining the initial rate as V. The plots were subjected to curve fitting of Michaelis Menten type, thereby giving Km values. The curve fitting was performed by a nonlinear least-squares method, and the search of the parameter was performed by a Newton method."}, "[2]": {"assay": "Measurement of light emission spectra of purified luciferase under various pH environments", "assay_type": "biochemical", "conditions": "light emission spectra at various pH", "experimental": "With use of LumiFlSpectroCapture (manufactured by ATTO Corporation) as an apparatus for measurement, to a solution of 0.1 M citric acid/0.1 M Na2HPO4 buffer (pH 5.5 to 8.0) containing 1 mM of D-luciferin, 2 mM of ATP and 4 mM of MgCl2 the purified enzyme was added at a final concentration of 1 μg/mL, and after 15 seconds of addition of the enzyme luminescence spectra was measured. The measurement results were illustrated in FIG. 1.\nAfter that, each of thus-prepared genes (SEQ ID NOs: 38 and 39) was introduced into pRSET-B vector according to the same method as the Example 2. This vector was transformed to E. coli JM109 (DE3) strain to express the mutant luciferase. Subsequently, the mutant luciferase was purified from E. coli. In addition, under various pH environments, the light emission spectrum was measured according to the same method as the Example 2 from a light emitting reaction catalyzed by the mutant luciferase."}, "HeLa cell": {"system": "HeLa cell", "assay": "Luminescence intensity of luciferase expressed in HeLa cell, comparison with P. pyralis luciferase (Example 3)", "assay_type": "cell-based", "conditions": "2 mM D-luciferin, 25° C., 90 min after starting measurement", "experimental": "Each of the wild type luciferase derived from L. accensa, the mutant luciferase derived from L. accensa (N50D and 1530R), and the luciferase derived from P. pyralis (SEQ ID NO: 33) was expressed in a HeLa cell, and the luminescence intensity was measured and compared to each other.\nFurther, since the pF9A vector contains the luciferase gene derived from Renilla reniformis as an internal control, it is possible to obtain the luminescence intensity from the luminescent gene inserted to the multicloning site as a ratio compared to the luminescence intensity emitted by the Renilla luciferase.\nThree types of plasmids obtained in such a manner described above were each subjected to gene transfection to a HeLa cell, which has been inoculated in a 24-well plate, by a lipofection method, and 24 hours later, the cells were washed with PBS. To each well of a 24-well plate, 500 μL of 2 mM D-luciferin/CO2 Independent Medium (manufactured by Invitrogen) was added and the luminescence intensity was measured for 90 min by using a Luminescensor (manufactured by ATTO Corporation) under the condition including 25° C. and 1 sec per each well. The luminescence intensity which is obtained at the time point of 90 min after starting the measurement was taken as the luminescence intensity of the wild type luciferase, the mutant luciferase, and P. pyralis luciferase. […] Subsequently, 500 μL of 10 μM coelenterazine/CO2 Independent Medium was added to each well and the luminescence intensity was measured for 30 min by using a Luminescensor under the condition including 25° C. and 1 sec per each well. The luminescence intensity obtained at five minutes after the addition of coelenterazine was taken as luminescence intensity of the Renilla luciferase, which is an internal control. Each of the luminescence intensity from the wild type luciferase, the mutant luciferase, and P. pyralis luciferase was divided by the luminescence intensity of the Renilla luciferase, and the results are illustrated as a graph illustrating the luminescence intensity of each luciferase."}, "[3]": {"assay": "Stability against degradation: SDS-polyacrylamide gel electrophoresis of lysate of E. coli expressing each luciferase (Example 4)", "conditions": "lysate of E. coli BL21 (DE3) CodonPlus expressing the luciferase", "experimental": "Stability against degradation was determined for the wild type luciferase derived from L. accensa in comparison with a known luciferase derived from L. biplagiata.\nThe above three genes were introduced into an expression vector and expressed in E. coli. The expression was carried out in the same manner as the Example 2 except that BL21 (DE3) CodonPlus (manufactured by Stratagene Corporation) was used as E. coli strain and the cells were cultured appropriately.\nThe lysate was prepared from the E. coli expressing each gene, and then subjected to SDS-polyacrylamide gel electrophoresis. It was confirmed that, as a band with the biggest size, a single band is present near 70 kDa for all three kinds of protein. […] Meanwhile, in the luciferase derived from L. biplagiata (i.e., left and right lanes), several bands with a size smaller than 70 kDa were identified."}, "[4]": {"assay": "Measurement of Km value with respect to ATP", "assay_type": "biochemical", "conditions": "0.1 M Tris-HCl pH 8.0, D-luciferin and MgSO4 present", "experimental": "Various 8 types of ATP solutions with different concentrations were prepared by adding ATP to 0.1 M Tris-HCl (pH 8.0). These solutions contain ATP at final concentration of 10, 20, 40, 80, 160, 320, 480, and 640 μM. These ATP solutions were aliquoted into a 96-well microplate at a volume of 50 μl each. 0.1 M Tris-HCl (pH 8.0) solution containing each purified luciferase, 1 mM of D-luciferin, and 8 mM of MgSO4 was connected to a standard pump of a luminometer, and the measurement was carried out at the same time as addition of 50 μL of the solution to wells. Measurement was repeated 3 times for each ATP concentration.\nas §1, with “peak intensities” for “peak intensity”, “value were” for “value was”, “to ATP” for “to luciferin”, “S, with an” for “S, defining the”, “rate” for “rate as”, “Km value.” for “Km values.”"}}, "note": "Entries after “also recorded” stand apart in the source; their conditions may differ."}
{"molecule": "wild type luciferase: wild type luciferase obtained from Lucidina accensa, amino acid sequence SEQ ID NO: 1 (protein, listed as Lucidina accensa) MEEDKNILRGPAPFYPLEDGTAGEQLHRAMKRYALIPGTIAFTDAHAGVNITYSEYFEMACRLAESLKRYGLGLQHRIVVCSENSLQFFMPVVGALFIGVGVAPANDIYNERELLNSMTISQPTLVFCSRKGLQKILNVQKKLPVIQKIIILDTKEDYMGFQSMYSFVDSQLPVGFNEYDYVPDSFDRDQATALIMNSSGSTGLPKGVELNHTSVCVRFSHCRDPVYGNQIIPDTAILSVIPFHHGFGMFTTLGYLICGFRVVLMYRFEEELFLRSLQDYKIQSALLVPTLFSFFAKSTLIDKYDLSNLHEIASGGAPLAKEVGEAVAKRFNLRGIRQGYGLTETTSAVIITPEGDDKPGAVGKVVPFFSAKVVDLDTGKTLGVNQRGELCLKGPMIMKGYVNNPEATNALIDKDGWLHSGDISYWDEDGHFFIVDRLKSLIKYKGYQVPPAELESILLQHPFIFDAGVAGIPDDEAGELPAAVVVLEEGKTMTEKEIMDYVAGQVTTAKRLRGGVVFVDEVPKGLTGKIDARKIREILVKVKKTKSKL", "values": [{"measurement": "luminescence intensity, mean value (divided by Renilla luciferase intensity)", "setting": "HeLa cells; 2 mM D-luciferin, 90 min", "value": 3.48}, {"measurement": "luminescence intensity in comparison to luciferase derived from L. biplagiata having the literature sequence", "setting": "HeLa cells", "value": "≥ 29", "unit": "times"}, {"measurement": "luminescence intensity in comparison to mutant luciferase M249K", "setting": "HeLa cells", "value": "≥ 34.8", "unit": "times"}, {"measurement": "Km", "setting": "[1]", "value": 16, "unit": "µM"}, {"measurement": "pH environment giving the highest luminescence intensity", "setting": "[2]", "value": 8, "unit": "pH"}, {"measurement": "luminescence intensity (divided by luminescence intensity of Renilla luciferase internal control)", "setting": "HeLa cell", "value": 7.3}, {"measurement": "stability against protein degradation (bands on stained SDS-PAGE gel)", "setting": "[3]", "value": "no other band was identified; also recorded: hardly degraded; also recorded: no degradation occurred"}, {"measurement": "Km", "setting": "[4]", "value": 47.6, "unit": "µM"}]}
